The text below walks through data of patent US6951919 (MOCHIDA PHARMACEUTICAL, dated 2005).

Some results are limits rather than exact numbers.

Holding throughout (assay): cell-based or functional assay
Assay [1] concerns the target T1, Fas on mouse W4 cells (mouse WR19L cell transformants that overexpress Fas) (UniProt P25446 22-327, limits assumed).
T1 sequence (looked up): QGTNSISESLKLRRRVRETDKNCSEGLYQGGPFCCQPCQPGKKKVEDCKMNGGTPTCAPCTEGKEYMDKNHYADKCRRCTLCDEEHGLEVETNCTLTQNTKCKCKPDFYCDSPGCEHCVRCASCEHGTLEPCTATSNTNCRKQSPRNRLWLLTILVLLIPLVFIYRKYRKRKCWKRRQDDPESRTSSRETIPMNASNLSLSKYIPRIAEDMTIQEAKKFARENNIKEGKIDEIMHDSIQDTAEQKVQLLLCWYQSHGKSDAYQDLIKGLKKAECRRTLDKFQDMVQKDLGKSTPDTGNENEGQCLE

The target in assay [2] is T2, Fas expressed endogenously on human Jurkat cells (human, UniProt P25445 26-335).
T2 sequence (looked up): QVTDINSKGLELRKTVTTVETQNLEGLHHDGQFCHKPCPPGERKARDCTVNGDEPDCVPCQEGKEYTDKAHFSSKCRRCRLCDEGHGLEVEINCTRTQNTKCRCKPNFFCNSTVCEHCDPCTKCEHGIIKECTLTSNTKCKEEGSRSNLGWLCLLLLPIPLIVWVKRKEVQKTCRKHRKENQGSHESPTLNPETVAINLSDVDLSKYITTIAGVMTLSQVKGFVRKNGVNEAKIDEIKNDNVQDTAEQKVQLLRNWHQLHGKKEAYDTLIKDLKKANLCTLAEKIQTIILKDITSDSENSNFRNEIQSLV

Assay [3] deals with Fas expressed endogenously on mouse primary hepatocytes (mouse), P25446.

B1: D4 deletion mutant of human FasL (amino acids 8-69 and 111-133 deleted) (ligand)
chain: MQQPFNYPLKKRGNHSTGLCLLVMFFMVLVALVGLGLGMFQLFHLQKEPSPPPEKKELRKVAHLTGKSNSRSMPLEWEDTYGIVLLSGVKYKKGGLVINETGLYFVYSKVYFRGQSCNNLPLSHKVYMRNSKYPQDLVMMEGKMMSYCTTGQMWARSSYLGAVFNLTSADHLYVNVSELSLVNFEESQTFFGLYKL
As to B1, the “specific killing of W4 cells at an E/T ratio of 5.0, 51Cr-release” value in assay [1] was approximately 50%. In addition, the “specific killing of Jurkat cells at an E/T ratio of 3.0, 51Cr-release” value in assay [2] is not below 20%.

B2: human soluble Fas ligand, P48023 130-281 (ligand)
chain: QIGHPSPPPEKKELRKVAHLTGKSNSRSMPLEWEDTYGIVLLSGVKYKKGGLVINETGLYFVYSKVYFRGQSCNNLPLSHKVYMRNSKYPQDLVMMEGKMMSYCTTGQMWARSSYLGAVFNLTSADHLYVNVSELSLVNFEESQTFFGLYKL
Consider B2, for which the concentration of soluble FasL that blocks half of the cytotoxic activity of membrane-bound FasL (D4 mutant) on mouse hepatocytes at E/T 2.0, GOT release in assay [3] was 0.4 µg/mL.
